The source of these data is article PMC4525180 (Nature communications, 2015).

B1: Csm2–Psy3 heterodimer (complex, S. cerevisiae)
chain 1: MEYEDLELITIWPSPTKNKLCQFIKQNLSKEHVVTQLFFIDATSSFPLSQFQKLVPPTLPENVRIYENIRINTCLDLEELSAITVKLLQILSMNKINAQRGTEDAVTEPLKIILYINGLEVMFRNSQFKSSPQRSHELLRDTLLKLRVMGNDENENASIRTLLEFPKEQLLDYYLKKNNNTRTSSVRSKRRRIKNGDSLAEYIWKYYADSLFE
chain 2: MEVLKNIRIYPLSNFITSTKNYINLPNELRNLISEEQESKLGFLHIIESDFKPSVALQKLVNCTTGDEKILIIDIVSIWSQQKQRQHGAIYMNSLSCINITGLIVFLELLYDSPMDALRRCQVDNFNFQLRGIVIDNLSFLNFESDKNYDVINLSKFEKLFKILRKLREFLGCWIITKSFPTDFYNGIENTLVDKWSIKRKSGVTLYPTKLPDSYMKGMDLIIYREVVDGRPQYRRIAALEE
B2: Shu complex (Csm2–Psy3–Shu1–Shu2) (complex, S. cerevisiae)
chain 1: B1 chain 1
chain 2: B1 chain 2
chain 3: MQFEERLQQLVESDWSLDQSSPNVLVIVLGDTARKYVELGGLKEHVTTNTVAGHVASRERVSVVFLGRVKYLYMYLTRMQAQANGPQYSNVLVYGLWDLTATQDGPQQLRLLSLVLRQCLSLPSKVEFYPEPPSSSVPARLLRFWDHIIR
chain 4: MSKDVIEYSKLFAKLVNTNDDTKLDDTIASFLYYMFPRELFIRAISLLESSDMFIYILDRVHNKEGNEHTSLIDVLVDEFYKGSSNSLLEYRLIVKDTNDGAPPILVDIAHWFCSCEEFCKYFHEALEKTDEKEELHDVLINEVDDHLQFSDDRFAQLDPHSLSKQWYFKFDKVCCSHLLAFSILLRSSINVLKFFTVNSNKVFVIAIDNIDEWLNLHINIVE
B3: Rad51 (natural protein, S. cerevisiae, UniProt P25454 1-400, looked up)
chain: MSQVQEQHISESQLQYGNGSLMSTVPADLSQSVVDGNGNGSSEDIEATNGSGDGGGLQEQAEAQGEMEDEAYDEAALGSFVPIEKLQVNGITMADVKKLRESGLHTAEAVAYAPRKDLLEIKGISEAKADKLLNEAARLVPMGFVTAADFHMRRSELICLTTGSKNLDTLLGGGVETGSITELFGEFRTGKSQLCHTLAVTCQIPLDIGGGEGKCLYIDTEGTFRPVRLVSIAQRFGLDPDDALNNVAYARAYNADHQLRLLDAAAQMMSESRFSLIVVDSVMALYRTDFSGRGELSARQMHLAKFMRALQRLADQFGVAVVVTNQVVAQVDGGMAFNPDPKKPIGGNIMAHSSTTRLGFKKGKGCQRLCKVVDSPCLPEAECVFAIYEDGVGDPREEDE
B4: Rad55–Rad57 complex (complex, S. cerevisiae)
chain 1: MSLGIPLSQLIVESPKPLSSGITGLDEILNLGFQARSIYEIFGPPGIGKTNFGIQLVCNSLEGIQQSEINDDKILWIETFQEMPINILRERFQKFKIVEENVKRVRITKFGQLLYFFQNLFKLSQSVRYKLVIIDGFSQLVCDHLCTLSKRGGGMIDKTIHELKCRHLILIFTVMTKYTHSTGSTIIVLNDCMNTAFQSNEFESLEEYYEILDDGSNFFVNSNNERRKNNVHILKSALVANIAMGSKDSTWEVFLRDRIGLFRDWNEQVDETVFVKSKRVKASSSQSNEGCTTIKEMRINKRNFENLRIAIVFNLHGEDRKREGRNLKRSRSSDDRNYIVKFDFDKATGQLRDIIDLKPDTANIASFPTLSTSSSSCSQVFNNIDSNDNPLPNAEGKEEIIYDSEG
chain 2: MPRALSIKFDNTYMDLYDELPESKLLYDEEFSYLLDAVRQNGVCVVDFLTLTPKELARLIQRSINEVFRFQQLLVHEYNEKYLEICEKNSISPDNGPECFTTADVAMDELLGGGIFTHGITEIFGESSTGKSQLLMQLALSVQLSEPAGGLGGKCVYITTEGDLPTQRLESMLSSRPAYEKLGITQSNIFTVSCNDLINQEHIINVQLPILLERSKGSIKLVIIDSISHHLRVELQNKSFRESQENKNYLDRMAEKLQILAHDYSLSVVVANQVGDKPLANSPVAHRTYVTDYDYQLGWLVGWKNSTILYRQMNSLLGASSNNDEILSDDEDYMLIERVMSTVNDRNYDFFSKKKPPIIENKTVERNSSSPISRQSKKRKFDYRVPNLGLTWSNHVSTRILLQKSFKASTIIQRGEAHLYKGGDSASFWQVKRTMKVVYSTFAKPGQIAYQITKRGIETA

Holding throughout (settings): both partners purified
Assay [1] addresses B4. Briefly: pull-down; His-tagged Rad55–Rad57 (0.5 μg) with Csm2–Psy3 (0.5 μg), captured on Ni-NTA resin through (His)6 on Rad55; buffer C (20 mM MOPS pH 7.2, 150 mM KCl, 1 mM ATP, 2 mM MgCl2, 15 mM imidazole), 4 °C, washes with 200 mM KCl; SDS-PAGE, Coomassie.
The target of assay [2] is B4. Briefly: pull-down; Shu complex with Rad55–Rad57; set-up only in Supplementary Fig. 2a.
Assay [3] addresses B4. The assay is described as follows: pull-down; pull-down with Rad51; set-up only in Supplementary Fig. 2b; also with Csm2–Psy3 added to Rad55–Rad57 and Rad51.
The next assay has as its target GST-tagged Rad52 (S. cerevisiae, UniProt P06778 1-471). The assay is described as follows: pull-down; GST–Rad52 with one partner, captured on glutathione resin; buffer with 100 mM KCl, no imidazole, 4 °C; anti-FLAG immunoblot (FLAG on Rad57 and Psy3). On the technique in general: In western blotting, separated proteins are transferred to a membrane and probed.

Sequence of GST-tagged Rad52 (P06778 whole entry): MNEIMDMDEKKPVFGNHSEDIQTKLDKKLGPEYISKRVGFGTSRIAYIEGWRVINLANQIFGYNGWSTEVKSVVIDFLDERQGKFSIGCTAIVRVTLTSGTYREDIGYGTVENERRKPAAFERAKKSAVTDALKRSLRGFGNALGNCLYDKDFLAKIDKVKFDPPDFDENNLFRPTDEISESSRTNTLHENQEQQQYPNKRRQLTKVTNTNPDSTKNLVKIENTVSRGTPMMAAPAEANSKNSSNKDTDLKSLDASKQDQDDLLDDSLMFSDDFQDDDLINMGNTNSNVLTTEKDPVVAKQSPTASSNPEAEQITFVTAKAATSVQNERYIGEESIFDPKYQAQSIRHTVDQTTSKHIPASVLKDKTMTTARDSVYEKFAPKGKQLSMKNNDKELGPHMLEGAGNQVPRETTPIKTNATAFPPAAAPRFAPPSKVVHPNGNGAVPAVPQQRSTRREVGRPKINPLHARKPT

Consider B1, for which the binding result in the assay with Rad55–Rad57 complex [1] was “binds”.
In the case of B2, the binding result in the assay with Rad55–Rad57 complex [2] is listed as “binds”.
Regarding B3, in the assay with Rad55–Rad57 complex [3], the binding result is “binds”.
With B4, the binding result in the assay with GST-tagged Rad52 was “binds”.
